Test results: paper PMC12416549 (2024)
Positions count from the first letter of the chain named. Numbers in names are those of the source. Each block holds one binder with its values, some of them ahead of it.

Biological target: T1, TNFR1 (Homo sapiens, UniProt P19438)
T1 chain: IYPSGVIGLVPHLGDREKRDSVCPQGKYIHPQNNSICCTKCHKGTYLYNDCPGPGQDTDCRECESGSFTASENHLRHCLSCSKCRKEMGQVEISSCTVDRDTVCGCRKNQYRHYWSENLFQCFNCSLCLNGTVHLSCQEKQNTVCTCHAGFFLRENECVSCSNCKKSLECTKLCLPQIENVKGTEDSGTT
Experiment: yeast display SC50

- apparent Kd (screen): 3 nM
B1: K107F (designed binder)
chain: SMEEEVEKAAKEYEKKKKEAIEKHLEKLKAKDKEAAERFLKELEEAAKEYAKDEAKTMSEEEAKRRAKKYKEKVLLSELSEEEQKEIKEAEEKLVRTILKYVEEAAF

- apparent Kd (screen): 1.4 nM
B2: L94K (designed binder)
chain: B1 chain with L94K, F107K

- apparent Kd (screen): 2.73 nM
B3: E62I (designed binder)
chain: B1 chain with E62I, F107K

- apparent Kd (screen): 0.869 nM
B4: K69F (designed binder)
chain: B1 chain with K69F, F107K

- apparent Kd (screen): 2.25 nM
B5: A46W (designed binder)
chain: B1 chain with A46W, F107K

- apparent Kd (screen): 3 nM
B6: E14A (designed binder)
chain: B1 chain with E14A, F107K

- apparent Kd (screen): 0.79 nM
B7: K64C (designed binder)
chain: B1 chain with K64C, F107K

- apparent Kd (screen): 1.27 nM
B8: T57S (designed binder)
chain: B1 chain with T57S, F107K

- apparent Kd (screen): 15.2 nM
B9: A63V (designed binder)
chain: B1 chain with A63V, F107K

- apparent Kd (screen): 5.84 nM
B10: V95D (designed binder)
chain: B1 chain with V95D, F107K

- apparent Kd (screen): 2.73 nM
B11: E49T (designed binder)
chain: B1 chain with E49T, F107K

- apparent Kd (screen): 12.5 nM
B12: A63Y (designed binder)
chain: B1 chain with A63Y, F107K

- apparent Kd (screen): 0.49 nM
B13: E5L (designed binder)
chain: B1 chain with E5L, F107K

- apparent Kd (screen): 1.4 nM
B14: A10Q (designed binder)
chain: B1 chain with A10Q, F107K

- apparent Kd (screen): 1.69 nM
B15: E45M (designed binder)
chain: B1 chain with E45M, F107K

- apparent Kd (screen): 1.54 nM
B16: E44Y (designed binder)
chain: B1 chain with E44Y, F107K

- apparent Kd (screen): 0.539 nM
B17: K8F (designed binder)
chain: B1 chain with K8F, F107K

- apparent Kd (screen): 0.593 nM
B18: R66D (designed binder)
chain: B1 chain with R66D, F107K

- apparent Kd (screen): 7.78 nM
B19: E7V (designed binder)
chain: B1 chain with E7V, F107K

- apparent Kd (screen): 0.956 nM
B20: K27V (designed binder)
chain: B1 chain with K27V, F107K

- apparent Kd (screen): 2.05 nM
B21: R65T (designed binder)
chain: B1 chain with R65T, F107K

- apparent Kd (screen): 1.05 nM
B22: M2F (designed binder)
chain: B1 chain with M2F, F107K

- apparent Kd (screen): 0.446 nM
B23: M2S (designed binder)
chain: B1 chain with M2S, F107K

- apparent Kd (screen): 0.49 nM
B24: E82I (designed binder)
chain: B1 chain with E82I, F107K

- apparent Kd (screen): 1.4 nM
B25: L76V (designed binder)
chain: B1 chain with L76V, F107K

- apparent Kd (screen): 4.39 nM
B26: E91H (designed binder)
chain: B1 chain with E91H, F107K

- apparent Kd (screen): 20.2 nM
B27: R65P (designed binder)
chain: B1 chain with R65P, F107K

- apparent Kd (screen): 26.9 nM
B28: E49Y (designed binder)
chain: B1 chain with E49Y, F107K

- apparent Kd (screen): 0.304 nM
B29: E81W (designed binder)
chain: B1 chain with E81W, F107K

- apparent Kd (screen): 0.718 nM
B30: L40T (designed binder)
chain: B1 chain with L40T, F107K

- apparent Kd (screen): 0.869 nM
B31: K8R (designed binder)
chain: B1 chain with K8R, F107K

- apparent Kd (screen): 2.05 nM
B32: L99I (designed binder)
chain: B1 chain with L99I, F107K

- apparent Kd (screen): 13.8 nM
B33: Y13P (designed binder)
chain: B1 chain with Y13P, F107K

- apparent Kd (screen): 29.5 nM
B34: Y50A (designed binder)
chain: B1 chain with Y50A, F107K

- apparent Kd (screen): 0.446 nM
B35: A105D (designed binder)
chain: B1 chain with A105D, F107K

- apparent Kd (screen): 3.99 nM
B36: D32R (designed binder)
chain: B1 chain with D32R, F107K

- apparent Kd (screen): 1.4 nM
B37: E61S (designed binder)
chain: B1 chain with E61S, F107K

- apparent Kd (screen): 0.446 nM
B38: L94F (designed binder)
chain: B1 chain with L94F, F107K

- apparent Kd (screen): 0.539 nM
B39: M2R (designed binder)
chain: B1 chain with M2R, F107K

- apparent Kd (screen): 0.869 nM
B40: K27S (designed binder)
chain: B1 chain with K27S, F107K

- apparent Kd (screen): 1.69 nM
B41: E72M (designed binder)
chain: B1 chain with E72M, F107K

- apparent Kd (screen): 15.2 nM
B42: A67E (designed binder)
chain: B1 chain with A67E, F107K

- apparent Kd (screen): 3 nM
B43: T57E (designed binder)
chain: B1 chain with T57E, F107K

- apparent Kd (screen): 0.446 nM
B44: E5H (designed binder)
chain: B1 chain with E5H, F107K

- apparent Kd (screen): 13.8 nM
B45: L43F (designed binder)
chain: B1 chain with L43F, F107K

- apparent Kd (screen): 0.539 nM
B46: E82W (designed binder)
chain: B1 chain with E82W, F107K

- apparent Kd (screen): 0.869 nM
B47: E103W (designed binder)
chain: B1 chain with E103W, F107K

- apparent Kd (screen): 1.69 nM
B48: D53H (designed binder)
chain: B1 chain with D53H, F107K

- apparent Kd (screen): 11.4 nM
B49: L99S (designed binder)
chain: B1 chain with L99S, F107K

- apparent Kd (screen): 6.43 nM
B50: E91R (designed binder)
chain: B1 chain with E91R, F107K

- apparent Kd (screen): 0.653 nM
B51: E5I (designed binder)
chain: B1 chain with E5I, F107K

- apparent Kd (screen): 1.86 nM
B52: L75Y (designed binder)
chain: B1 chain with L75Y, F107K

- apparent Kd (screen): 0.446 nM
B53: Y13F (designed binder)
chain: B1 chain with Y13F, F107K

- apparent Kd (screen): 6.43 nM
B54: E91W (designed binder)
chain: B1 chain with E91W, F107K

- apparent Kd (screen): 7.07 nM
B55: V95L (designed binder)
chain: B1 chain with V95L, F107K

- apparent Kd (screen): 1.4 nM
B56: K18Q (designed binder)
chain: B1 chain with K18Q, F107K

- apparent Kd (screen): 11.4 nM
B57: R65W (designed binder)
chain: B1 chain with R65W, F107K

- apparent Kd (screen): 1.4 nM
B58: K68H (designed binder)
chain: B1 chain with K68H, F107K

- apparent Kd (screen): 16.7 nM
B59: V74T (designed binder)
chain: B1 chain with V74T, F107K
